The values that follow come from patent US20020035246A1 (VLAAMS INTERUNIVERSITAIR INSTITUUT VOOR BIOTECHNOLOGIE VZW, published 2002).

The chains are these.
B1: SIP7 prey protein (th74; partial open reading frame fused to the GAL4 transactivating domain in pACT2) (other, not shown: small tags and cut ends)
chain: TEPVRTDRRTEDQTATKERLLPPSGPLPRTPAPAPVTAPDTARCAVLAARHGRALSPGPRALAPSAQRCCPASGRAAETPASVGAGALRVGPAQPSQARQPTMLLLSPRSALVSVYCPQIFLLLSTAVTTLSSVVALGANIICNKIPGLAPRQRAICQSRPDAIIVIGEGAQMGIDECQHQFRFGRWNCSALGEKTVFGQELRVGSREAAFTYAITAAGVAHAVTAACSQGNLSNCGCDREKQGYYNQAEGWKWGGCSADVRYGIDFSRRFVDAREIKKNAGS
B2: Lamin (pLAM; Clontech) (other, UniProt P02545 66-230, looked up)
chain: SEEVVSREVSGIKAAYEAELGDARKTLDSVAKERARLQLELSKVREEFKELKARNTKKEGDLIAAQARLKDLEALLNSKEAALSTALSEKRTLEGELHDLRGQVAKLEAALGEAKKQLQDEMLRRVDAENRLQTMKEELDFQKNIYSEELRETKRRHETRLVEID
notes: Bought control bait plasmid

Test in all cases: yeast two-hybrid
Assay [1] deals with B2.
For assay [2], the target named is T1, Empty bait vector pGBT9 (GAL-4 DBD alone) (UniProt P04386 1-147).
T1 construct: Negative control bait; also called empty bait (i.e., GAL-4 DBD alone)

Assay [3] has as its target T2, SIP1 (TH1) prey protein (GAL4TAD fused to the 626 aa polypeptide encoded by th1 cDNA) (mouse, UniProt Q9R0G7 315-940, limits assumed).
T2 sequence: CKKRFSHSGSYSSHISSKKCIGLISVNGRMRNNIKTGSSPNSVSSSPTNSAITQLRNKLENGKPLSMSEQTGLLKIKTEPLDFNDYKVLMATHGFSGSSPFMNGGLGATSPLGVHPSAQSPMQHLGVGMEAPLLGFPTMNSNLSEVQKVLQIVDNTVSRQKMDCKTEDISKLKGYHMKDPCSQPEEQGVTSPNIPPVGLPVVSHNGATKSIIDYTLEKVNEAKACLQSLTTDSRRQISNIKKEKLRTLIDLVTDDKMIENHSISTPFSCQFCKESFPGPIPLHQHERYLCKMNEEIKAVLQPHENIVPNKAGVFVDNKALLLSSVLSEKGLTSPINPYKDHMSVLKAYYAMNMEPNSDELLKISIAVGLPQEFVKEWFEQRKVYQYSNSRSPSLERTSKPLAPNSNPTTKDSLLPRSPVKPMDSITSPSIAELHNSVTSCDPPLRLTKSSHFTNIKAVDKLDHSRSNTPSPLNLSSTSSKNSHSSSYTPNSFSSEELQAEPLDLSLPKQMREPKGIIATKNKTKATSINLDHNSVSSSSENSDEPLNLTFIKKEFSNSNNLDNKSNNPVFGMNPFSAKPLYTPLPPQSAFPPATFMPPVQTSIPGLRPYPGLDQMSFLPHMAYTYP

The target of assay [4] is T3, TH72 prey protein (GAL4TAD fused in-frame to a partial SMAD4 starting at amino acid 252) (mouse, UniProt P97471 252-551, limits assumed).
T3 construct: Only the start (aa 252) is stated; the C-terminal end of the clone is not; also called TH72 (DPC4 or SMAD4); partial DPC-4 (SMAD4)
T3 sequence (looked up): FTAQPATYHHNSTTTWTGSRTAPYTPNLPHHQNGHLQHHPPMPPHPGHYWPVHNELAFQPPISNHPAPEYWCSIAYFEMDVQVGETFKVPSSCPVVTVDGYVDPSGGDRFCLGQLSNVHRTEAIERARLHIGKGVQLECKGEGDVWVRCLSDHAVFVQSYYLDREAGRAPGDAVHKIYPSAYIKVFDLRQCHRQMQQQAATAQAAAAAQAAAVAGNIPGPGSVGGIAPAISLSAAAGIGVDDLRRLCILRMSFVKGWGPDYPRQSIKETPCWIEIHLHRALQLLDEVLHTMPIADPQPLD

T1 sequence (P04386 1-147 limits assumed): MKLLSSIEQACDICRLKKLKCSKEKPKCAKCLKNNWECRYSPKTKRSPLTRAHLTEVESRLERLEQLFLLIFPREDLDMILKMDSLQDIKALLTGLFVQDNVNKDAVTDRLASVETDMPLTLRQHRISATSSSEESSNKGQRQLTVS

As to B1, the binding result in assay [1] and in assay [2] was “no binding” each time.
B2: the binding result in assay [3] and in assay [4] was “no binding” throughout.
